In patent publication US20070293659A1:

Biological target: Human interleukin-2 (IL-2) (human) (UniProt P60568)
Assay: SPR (BIAcore 3000), data not shown

Kd: 0.1 nM
Substance: oriented (Or) Fab'602: Fab' fragment of MAB602 biotinylated in the hinge region
